Test results as given in patent publication US20120277286A1, “COMPOSITIONS AND METHODS FOR THE TREATMENT OR PREVENTION OF MITOCHONDRIAL DISEASES” (The Government of the USA, as represented by the Secretary, …, priority 2009, published 2012).

Experiments:
PINK1 = PINK1 cleavage pattern by immunoblotting (Examples 4 and 5); type: cell-based; conditions: HeLa; for levels of FL and/or ΔMTS-PINK1: absence of CCCP or MG132
Description: PARL siRNA (5′-[…]-C′) were synthesized by Qiagen. In order to achieve efficient knockdown of PARL, cells were transfected twice over a period of 96 hrs. PINK1-V5/His was a gift from M. Cookson (National Institute of Health, Bethesda, Md.). For site-directed mutagenesis, primers were designed using Primer X, web-based mutagenic primer design program (http://www.bioinformatics.org/primerx/), and produced by Operon. 15 rounds of PCR reactions were performed using Phusion DNA polymerase (Finnzymes) and WT PINK1-YFP constructs as a template. Introduction of point mutations were confirmed by sequencing.
(§1) Cells were cultured in borosilicated chamber slides for imaging, 6-well plates for whole cell lysates, and 100 or 150 mm culture dish for subcellular fractionation. One day after seeding, cells were transfected with indicated constructs using Fugene HD (Roche) or Lipofectamine 2000 (Invitrogen) according to the manufacturer's guidelines.
For whole cell lysates, cells were washed twice with cold-PBS and then directly lysed with 1× sample buffer. For mitochondrial fraction, cells were fractionated as described previously (Narendra et al., 2008) and below, and then mitochondrial pellets were lysed with 1× sample buffer. 20 μg of proteins were separated on 4-12% Tris-glycine or Bis-Tris SDS-PAGE. The following antibodies were used: anti-PINK1 (Novus Biologicals), anti-PARL N-terminal (a gift from L. Pellegrini), anti-Tom20 (Santa Cruz Biotechnology, Inc.), anti-AIF (Sigma-Aldrich) and antiHtra2/Omi (R&D systems) polyclonal antibodies; anti-VDAC (Calbiochem), anti-Tubulin, anti-βactin (Sigma-Aldrich), anti-Hsp70 (Cell Signaling Technologies), anti-Tom20 (BD), anti-Tim23 and anti-cytochrome C (BD) monoclonal antibodies.

HeLa cells = assay: Mitochondrial translocation of Parkin by imaging (Examples 4 and 5); type: cell-based; conditions: HeLa cells or PINK1 KO cells, without CCCP
Description: as §1
For immunocytochemistry, cultured cells in borosilicated chamber slides were fixed with 4% paraformaldehyde in PBS (USB) and permeabilized with the indicated detergent. After 30 min blocking with 10% BSA in PBS, cells were stained with the following primary antibodies: antiTom20 polyclonal antibody (Santa Cruz Biotechnology, Inc.) and anti-cytochrome C monoclonal antibody (BD), or anti-Tom20 monoclonal antibody (BD) and anti-GFP polyclonal antibody (Invitrogen) and then with the following secondary antibodies: goat anti-mouse/rabbit IgG antibody conjugated with Alexa Fluor 594/647, respectively. In case of live cell imaging, cells were pulsed with 600 nM TMRE for 5 min to evaluate mitochondrial membrane potential or 10 nM Mitotracker Red for 30 min to see the mitochondrial morphology. Cells were imaged using an inverted microscope (LSM510 Meta; Carl Zeiss) with 63×/1.4 oil DIC Plan Apo objective. Image contrast and brightness were adjusted in LSM image browser (Carl Zeiss).

Row | Molecule | levels of FL and/or ΔMTS-PINK1 (PINK1) | mitochondrial translocation of Parkin induced by PINK1 mutant (HeLa cells) | 52 kDa fragment of PINK1 (PINK1; absence of MG132 treatment)
1 | G97F: PINK1-YFP transmembrane domain point mutant (protein, UniProt Q9BXM7 78-581, looked up, variant G97F, YFP fusion, PINK1-YFP transmembrane domain point mutant) Serine/threonine-protein …: AARLQRQFVVRAWGCAGPCFRAVFLAFGLGLGLIEEKQAESRRAVSACQEIQAIFTQKSKPGPDPLDTRRLQGFRLEEYLIGQSIGKGCSAAVYEATMPTLPQNLEVTKSTGLLPGRGPGTSAPGEGQERAPGAPAFPLAIKMMWNISAGSSSEAILNTMSQELVPASRVALAGEYGAVTYRKSKRGPKQLAPHPNIIRVLRAFTSSVPLLPGALVDYPDVLPSRLHPEGLGHGRTLFLVMKNYPCTLRQYLCVNTPSPRLAAMMLLQLLEGVDHLVQQGIAHRDLKSDNILVELDPDGCPWLVIADFGCCLADESIGLQLPFSSWYVDRGGNGCLMAPEVSTARPGPRAVIDYSKADAWAVGAIAYEIFGLVNPFYGQGKAHLESRSYQEAQLPALPESVPPDVRQLVRALLQREASKRPSARVAANVLHLSLWGEHILALKNLKLDKMVGWLLQQSAATLLANRLTEKCCVETKMKMLFLANLECETLCQAALLLCSWRAAL | dramatically increased levels |  | 
2 | R98F: PINK1-YFP transmembrane domain point mutant (protein, UniProt Q9BXM7 78-581, looked up, variant R98F, YFP fusion, PINK1-YFP transmembrane domain point mutant) Serine/threonine-protein …: AARLQRQFVVRAWGCAGPCGFAVFLAFGLGLGLIEEKQAESRRAVSACQEIQAIFTQKSKPGPDPLDTRRLQGFRLEEYLIGQSIGKGCSAAVYEATMPTLPQNLEVTKSTGLLPGRGPGTSAPGEGQERAPGAPAFPLAIKMMWNISAGSSSEAILNTMSQELVPASRVALAGEYGAVTYRKSKRGPKQLAPHPNIIRVLRAFTSSVPLLPGALVDYPDVLPSRLHPEGLGHGRTLFLVMKNYPCTLRQYLCVNTPSPRLAAMMLLQLLEGVDHLVQQGIAHRDLKSDNILVELDPDGCPWLVIADFGCCLADESIGLQLPFSSWYVDRGGNGCLMAPEVSTARPGPRAVIDYSKADAWAVGAIAYEIFGLVNPFYGQGKAHLESRSYQEAQLPALPESVPPDVRQLVRALLQREASKRPSARVAANVLHLSLWGEHILALKNLKLDKMVGWLLQQSAATLLANRLTEKCCVETKMKMLFLANLECETLCQAALLLCSWRAAL | dramatically increased levels | did not induce | 
3 | A103W: PINK1-YFP transmembrane domain point mutant (protein, UniProt Q9BXM7 78-581, looked up, variant A103W, C-terminal YFP fusion, PINK1-YFP transmembrane domain point mutant) Serine/threonine-protein …: AARLQRQFVVRAWGCAGPCGRAVFLWFGLGLGLIEEKQAESRRAVSACQEIQAIFTQKSKPGPDPLDTRRLQGFRLEEYLIGQSIGKGCSAAVYEATMPTLPQNLEVTKSTGLLPGRGPGTSAPGEGQERAPGAPAFPLAIKMMWNISAGSSSEAILNTMSQELVPASRVALAGEYGAVTYRKSKRGPKQLAPHPNIIRVLRAFTSSVPLLPGALVDYPDVLPSRLHPEGLGHGRTLFLVMKNYPCTLRQYLCVNTPSPRLAAMMLLQLLEGVDHLVQQGIAHRDLKSDNILVELDPDGCPWLVIADFGCCLADESIGLQLPFSSWYVDRGGNGCLMAPEVSTARPGPRAVIDYSKADAWAVGAIAYEIFGLVNPFYGQGKAHLESRSYQEAQLPALPESVPPDVRQLVRALLQREASKRPSARVAANVLHLSLWGEHILALKNLKLDKMVGWLLQQSAATLLANRLTEKCCVETKMKMLFLANLECETLCQAALLLCSWRAAL |  | did not recruit Parkin | stabilize the 52 kDa fragment
